Data on 48 substances can be found in paper PMC11046469, “Leveraging a Phage-Encoded Noncanonical Amino Acid: A Novel Pathway to Potent and Selective Epigenetic Reader Protein Inhibitors” (ACS Central Science, 2024).

The first experiment deals with T1, ENL YEATS domain (AviSUMO-ENL YEATS) (Homo sapiens, UniProt Q03111).
T1 construct: encoding ENL YEATS (aa 1−148) was cloned in pET28a-; made in house; host or cells: E. coli BL21(DE3pLysS), co-expressed with BirA (pBirAcm)
T1 sequence (Q03111 1-148): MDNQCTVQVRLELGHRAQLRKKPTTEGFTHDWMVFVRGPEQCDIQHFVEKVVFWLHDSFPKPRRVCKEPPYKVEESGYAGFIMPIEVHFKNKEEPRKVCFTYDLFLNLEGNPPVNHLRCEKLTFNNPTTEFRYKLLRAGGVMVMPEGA
Put plainly: Phage panning of BuK-containing 7-mer library against AviSUMO-ENL YEATS with Illumina NGS abundance. The following applies: sheet ENLR3: round 3 of panning against ENL YEATS; TAG = amber codon (BuK); 7-mer library positions V1-V7. The gist of the method:
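Phage displaying BuK-containing amber-obligate 7-mer peptides, made with 5 mM BuK, was panned against biotinylated AviSUMO-ENL YEATS on streptavidin beads with washes of rising stringency. Rounds 1 and 3 were sequenced by Illumina NGS, and sequences with mismatches were filtered out before copy-number abundance was counted.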
On to YDIYCYTAG, for which the “n (number of NGS reads of the unique amino acid sequence)” value came out at 3 and the “percent (share of sequence reads)” value is recorded as 0.002732%.

YDLYCYTAG: the “n (number of NGS reads of the unique amino acid sequence)” value is on record as 3 and the “percent (share of sequence reads)” value came to 0.002732%.

Turning to YDVCCYTAG, the “n (number of NGS reads of the unique amino acid sequence)” value is recorded as 6 and the “percent (share of sequence reads)” value is reported as 0.005464%.

On to YDVFCYTAG, for which the “n (number of NGS reads of the unique amino acid sequence)” value was 8 and the “percent (share of sequence reads)” value stood at 0.007285%.

Turning to YDVHCYTAG, the “n (number of NGS reads of the unique amino acid sequence)” value was determined as 5 and the “percent (share of sequence reads)” value stood at 0.004553%.

On to YDVYCCTAG, for which the “n (number of NGS reads of the unique amino acid sequence)” value stood at 5 and the “percent (share of sequence reads)” value worked out at 0.004553%.

With YDVYCFTAG, the “n (number of NGS reads of the unique amino acid sequence)” value was found to be 2 and the “percent (share of sequence reads)” value is given as 0.001821%.

As to YDVYCHTAG, the “n (number of NGS reads of the unique amino acid sequence)” value was 13 and the “percent (share of sequence reads)” value is reported as 0.01184%.

Take YDVYCNTAG: the “n (number of NGS reads of the unique amino acid sequence)” value was 3 and the “percent (share of sequence reads)” value turned out to be 0.002732%.

As for YDVYCTAGTAG, the “n (number of NGS reads of the unique amino acid sequence)” value was 3 and the “percent (share of sequence reads)” value came out at 0.002732%.

With YDVYCYL, the “n (number of NGS reads of the unique amino acid sequence)” value was 2 and the “percent (share of sequence reads)” value is 0.001821%.

In the case of YDVYCYQ, the “n (number of NGS reads of the unique amino acid sequence)” value came out at 15 and the “percent (share of sequence reads)” value amounted to 0.01366%.

Regarding YDVYCYTAG, the “n (number of NGS reads of the unique amino acid sequence)” value turned out to be 60611 and the “percent (share of sequence reads)” value is reported as 55.1932%.

As for YDVYCYW, the “n (number of NGS reads of the unique amino acid sequence)” value stood at 26 and the “percent (share of sequence reads)” value is 0.02368%.

On to YDVYCYY, for which the “n (number of NGS reads of the unique amino acid sequence)” value worked out at 26 and the “percent (share of sequence reads)” value was determined as 0.02368%.

YDVYFYTAG: the “n (number of NGS reads of the unique amino acid sequence)” value is given as 47 and the “percent (share of sequence reads)” value amounted to 0.0428%.

For YDVYRYTAG, the “n (number of NGS reads of the unique amino acid sequence)” value turned out to be 9 and the “percent (share of sequence reads)” value is 0.008196%.

In the case of YDVYSYTAG, the “n (number of NGS reads of the unique amino acid sequence)” value stood at 3 and the “percent (share of sequence reads)” value turned out to be 0.002732%.

For the substance YDVYWYTAG, the “n (number of NGS reads of the unique amino acid sequence)” value came to 3 and the “percent (share of sequence reads)” value worked out at 0.002732%.

As for YDVYYYTAG, the “n (number of NGS reads of the unique amino acid sequence)” value was 7 and the “percent (share of sequence reads)” value is listed as 0.006374%.

In the case of YEVYCYTAG, the “n (number of NGS reads of the unique amino acid sequence)” value turned out to be 2 and the “percent (share of sequence reads)” value is reported as 0.001821%.

Take YGVYCYTAG: the “n (number of NGS reads of the unique amino acid sequence)” value came to 13 and the “percent (share of sequence reads)” value turned out to be 0.01184%.

Regarding YHVYCYTAG, the “n (number of NGS reads of the unique amino acid sequence)” value was determined as 2 and the “percent (share of sequence reads)” value came out at 0.001821%.

Consider YLYTAGFPC, for which the “n (number of NGS reads of the unique amino acid sequence)” value is on record as 5 and the “percent (share of sequence reads)” value was found to be 0.004553%.

On to YLYTAGVPC, for which the “n (number of NGS reads of the unique amino acid sequence)” value came to 1006 and the “percent (share of sequence reads)” value is listed as 0.9161%.

Regarding YLYYVPC, the “n (number of NGS reads of the unique amino acid sequence)” value is recorded as 6 and the “percent (share of sequence reads)” value amounted to 0.005464%.

For the substance YNVYCYTAG, the “n (number of NGS reads of the unique amino acid sequence)” value stood at 10 and the “percent (share of sequence reads)” value was 0.009106%.

In the case of YVGPWTAGG, the “n (number of NGS reads of the unique amino acid sequence)” value is listed as 41 and the “percent (share of sequence reads)” value was 0.03734%.

Turning to YVVYCYTAG, the “n (number of NGS reads of the unique amino acid sequence)” value is 4 and the “percent (share of sequence reads)” value stood at 0.003642%.

As to YYVYCYTAG, the “n (number of NGS reads of the unique amino acid sequence)” value was 38 and the “percent (share of sequence reads)” value was determined as 0.0346%.

Staying with this experiment, now noted: sheet ENLR3: round 3 of selection against ENL YEATS; TAG = amber codon (BuK).
Turning to YDGPWTAGG, the “n (number of NGS reads of the 7-mer sequence V1-V7)” value is 1 and the “percent (share of NGS reads of the 7-mer sequence V1-V7)” value is 0.0009106%.

Consider YDGYCYTAG, for which the “n (number of NGS reads of the 7-mer sequence V1-V7)” value is 1 and the “percent (share of NGS reads of the 7-mer sequence V1-V7)” value is 0.0009106%.

Consider YDVYCSTAG, for which the “n (number of NGS reads of the 7-mer sequence V1-V7)” value was determined as 1 and the “percent (share of NGS reads of the 7-mer sequence V1-V7)” value is recorded as 0.0009106%.

Take YDVYCYE: the “n (number of NGS reads of the 7-mer sequence V1-V7)” value was found to be 1 and the “percent (share of NGS reads of the 7-mer sequence V1-V7)” value is on record as 0.0009106%.

In the case of YDVYCYK, the “n (number of NGS reads of the 7-mer sequence V1-V7)” value came to 1 and the “percent (share of NGS reads of the 7-mer sequence V1-V7)” value is given as 0.0009106%.

Consider YGTAGHDFF, for which the “n (number of NGS reads of the 7-mer sequence V1-V7)” value stood at 1 and the “percent (share of NGS reads of the 7-mer sequence V1-V7)” value worked out at 0.0009106%.

Turning to YLDDTAGLH, the “n (number of NGS reads of the 7-mer sequence V1-V7)” value is 1 and the “percent (share of NGS reads of the 7-mer sequence V1-V7)” value stood at 0.0009106%.

Take YLTLFTAGG: the “n (number of NGS reads of the 7-mer sequence V1-V7)” value was determined as 1 and the “percent (share of NGS reads of the 7-mer sequence V1-V7)” value came out at 0.0009106%.

Turning to YLYLVPC, the “n (number of NGS reads of the 7-mer sequence V1-V7)” value is 1 and the “percent (share of NGS reads of the 7-mer sequence V1-V7)” value turned out to be 0.0009106%.

Take YLYTAGAPC: the “n (number of NGS reads of the 7-mer sequence V1-V7)” value stood at 1 and the “percent (share of NGS reads of the 7-mer sequence V1-V7)” value amounted to 0.0009106%.

Take YLYTAGVHC: the “n (number of NGS reads of the 7-mer sequence V1-V7)” value came to 1 and the “percent (share of NGS reads of the 7-mer sequence V1-V7)” value was found to be 0.0009106%.

YLYTAGVPF: the “n (number of NGS reads of the 7-mer sequence V1-V7)” value turned out to be 1 and the “percent (share of NGS reads of the 7-mer sequence V1-V7)” value was 0.0009106%.

Consider YLYVTAGAC, for which the “n (number of NGS reads of the 7-mer sequence V1-V7)” value was found to be 1 and the “percent (share of NGS reads of the 7-mer sequence V1-V7)” value stood at 0.0009106%.

Turning to YPCVCFTAG, the “n (number of NGS reads of the 7-mer sequence V1-V7)” value was 1 and the “percent (share of NGS reads of the 7-mer sequence V1-V7)” value is 0.0009106%.

With YRWVFSF, the “n (number of NGS reads of the 7-mer sequence V1-V7)” value stood at 1 and the “percent (share of NGS reads of the 7-mer sequence V1-V7)” value was 0.0009106%.

In the case of YVCPWTAGG, the “n (number of NGS reads of the 7-mer sequence V1-V7)” value was 1 and the “percent (share of NGS reads of the 7-mer sequence V1-V7)” value stood at 0.0009106%.

As for YVGPLTAGG, the “n (number of NGS reads of the 7-mer sequence V1-V7)” value amounted to 1 and the “percent (share of NGS reads of the 7-mer sequence V1-V7)” value was determined as 0.0009106%.

Turning to YWTAGCARV, the “n (number of NGS reads of the 7-mer sequence V1-V7)” value stood at 1 and the “percent (share of NGS reads of the 7-mer sequence V1-V7)” value amounted to 0.0009106%.
